Substrate in the data set: O=C(O)c1ccc(O)c(O)c1
Description: purified protein. Format: biochemical, Comamonas testosteroni. The following applies: pH 7.5, room temperature, anaerobically purified enzyme, dithionite-treated, O2 co-substrate.

B1: PmdAB (protocatechuate 4,5-dioxygenase) (Comamonas testosteroni) (protein)
chain 1: MARITASVFTSHVPAIGAAMDMGKTQEAYWAPLFKGYDFSRQWMKDNKPDVIFLVYNDHATAFSLDCIPTFAIGTAAEFQPADEGWGPRPVPKVVGHPDLASHIAQSVIQQDFDLTIVNKMDVDHGLTVPLSLMCGEQDPKTGSWPCPVIPFAVNVVQYPVPTGQRCFNLGRAIRKAVESYDQDINVHIWGTGGMSHQLQGARAGLINKEWDNQFLDLLVENPHGLAQMPHIDYVREAGSEGIELVMWLIARGAMSDVDGPAPLPKVAHRFYHVPASNTAVGHLILENQ
chain 2: MALEKPYLDVPGTIIFDAEQSRKGYWLNQFCMSLMKAENRERFRADERAYLDEWAMTEEQKQAVLARDLNWCMRTGGNIYFLAKIGATDGKSFQQMAGSMTGMTEEEYRAMMMGGGRSAEGNRYVGEDGDAQAHHQPQGSAGNQNKEGN
notes: full-length, codon-optimized, N-terminal His6-PmdA co-expressed with PmdB in E. coli BL21(DE3); purified anaerobically; alpha2beta2 heterotetramer, nonheme Fe(II)
Turning to B1, the Km (as a rule, the concentration of substrate that gives half-maximal velocity) came to 33.00 ± 12.0 µM; the kcat (usually the number of substrate molecules converted per active site and unit of time at saturation) amounted to 107 ± 7.5 s⁻¹; the kcat/Km (in general, the second-order rate constant that governs catalysis at low substrate concentration) worked out at 3.3e+06 M⁻¹ s⁻¹.

Values taken from publication PMC11489326, “Characterization of lignin-degrading enzyme PmdC, which catalyzes a key step in the synthesis of polymer precursor 2-pyrone-4,6-dicarboxylic acid” (The Journal of Biological Chemistry, 2024).
